Measurements: publication PMC11143359 (2024)

B1: Lag3-Myc, full-length (FL), in HEK293FT cells [not stated] / human FLAG-APLP1, full length [human] (parent complex)
chain 1: GPGKELPVVWAQEGAPVHLPCSLKSPNLDPNFLRRGGVIWQHQPDSGQPTPIPALDLHQGMPSPRQPAPGRYTVLSVAPGGLRSGRQPLHPHVQLEERGLQRGDFSLWLRPALRTDAGEYHATVRLPNRALSCSLRLRVGQASMIASPSGVLKLSDWVLLNCSFSRPDRPVSVHWFQGQNRVPVYNSPRHFLAETFLLLPQVSPLDSGTWGCVLTYRDGFNVSITYNLKVLGLEPVAPLTVYAAEGSRVELPCHLPPGVGTPSLLIAKWTPPGGGPELPVAGKSGNFTLHLEAVGLAQAGTYTCSIHLQGQQLNATVTLAVITVTPKSFGLPGSRGKLLCEVTPASGKERFVWRPLNNLSRSCPGPVLEIQEARLLAERWQCQLYEGQRLLGATVYAAESSSGAHSARRISGDLKGGHLVLVLILGALSLFLLVAGAFGFHWWRKQLLLRRFSALEHGIQPFPAQRKIEELERELETEMGQEPEPEPEPQLEPEPRQL
chain 2: SLAGGSPGAAEAPGSAQVAGLCGRLTLHRDLRTGRWEPDPQRSRRCLRDPQRVLEYCRQMYPELQIARVEQATQAIPMERWCGGSRSGSCAHPHHQVVPFRCLPGEFVSEALLVPEGCRFLHQERMDQCESSTRRHQEAQEACSSQGLILHGSGMLLPCGSDRFRGVEYVCCPPPGTPDPSGTAVGDPSTRSWPPGSRVEGAEDEEEEESFPQPVDDYFVEPPQAEEEEETVPPPSSHTLAVVGKVTPTPRPTDGVDIYFGMPGEISEHEGFLRAKMDLEERRMRQINEVMREWAMADNQSKNLPKADRQALNEHFQSILQTLEEQVSGERQRLVETHATRVIALINDQRRAALEGFLAALQADPPQAERVLLALRRYLRAEQKEQRHTLRHYQHVAAVDPEKAQQMRFQVHTHLQVIEERVNQSLGLLDQNPHLAQELRPQIQELLHSEHLGPSELEAPAPGGSSEDKGGLQPPDSKDDTPMTLPKGSTEQDAASPEKEKMNPLEQYERKVNASVPRGFPFHSSEIQRDELAPAGTGVSREAVSGLLIMGAGGGSLIVLSMLLLRRKKPYGAISHGVVEVDPMLTLEEQQLRELQRHGYENPTYRFLEERP

Variants of: B1
Test: co-IP (IP: FLAG, blot Myc-Lag3), band intensity quantified; read off a plot

Row | response | Variant
1 | ~20 AU | chain 2 L25A, chain 2 T26A, chain 2 H28A, chain 2 D30A, chain 2 C46A, chain 2 L47A, chain 2 Q71A, chain 2 T73A, chain 2 I76A
